Reference: PMC6780499, “Characterization, Recombinant Production and Structure-Function Analysis of NvCI, A Picomolar Metallocarboxypeptidase Inhibitor from the Marine Snail Nerita versicolor” (Marine Drugs, 2019)
Each block holds one molecule with its values, some of them ahead of it. No end group written: not given here.

Columns and labels:
[1] = tested on: different MCPs; test: Apparent binding kinetics, effect of preincubation time; format: biochemical; details: preincubation over different periods of time, titration and equilibrium conditions
Experimental: (§1) The Ki values of natural and recombinant NvCI against bCPA1, hCPA1, hCPA2, rat CPA3, hCPA4, hCPB1, bTAFI, hTAFI, hCPD and hCPZ were determined by measuring the enzymatic residual activity (Vi/V0 = a) at different inhibitor concentrations and using a fixed enzyme and substrate concentrations as described above, where vi and v0 are the fraction of enzymatic activity in the presence and absence of inhibitor, respectively, in terms of initial velocities. […] Working temperature was 37 °C. The best estimates of Ki values were obtained by fitting the experimental data to the equation for tight-binding inhibitors by non-linear regression using the GraphPad Prisma 5 software (GraphPad Software, Inc., San Diego, CA, USA) at p < 0.05. The real Ki values against each of these A/B-type MCPs were calculated according to the equation described by Morrison and Copeland [19, 20].

[2] = tested on: CPA1 forms; test: as above; format: biochemical; details: preincubation over different periods of time, titration and equilibrium conditions
Experimental: as §1

[3] = molecular target: T1, hCPD (Homo sapiens (Human), UniProt O75976); test: Ki, residual activity
T1 chain: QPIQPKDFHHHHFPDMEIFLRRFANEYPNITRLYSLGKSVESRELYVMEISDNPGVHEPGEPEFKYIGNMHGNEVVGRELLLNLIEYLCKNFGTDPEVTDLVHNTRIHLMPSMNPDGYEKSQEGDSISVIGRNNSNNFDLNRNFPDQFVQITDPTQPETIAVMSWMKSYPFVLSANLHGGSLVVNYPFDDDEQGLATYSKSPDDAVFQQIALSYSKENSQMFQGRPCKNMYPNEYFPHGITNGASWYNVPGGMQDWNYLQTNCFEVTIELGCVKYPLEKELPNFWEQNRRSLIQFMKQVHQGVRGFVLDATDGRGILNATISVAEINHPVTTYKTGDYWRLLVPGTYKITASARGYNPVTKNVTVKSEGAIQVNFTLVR

[4] = molecular target: T2, hCPB (Homo sapiens (Human), UniProt P15086); test: Ki, residual activity
T2 chain: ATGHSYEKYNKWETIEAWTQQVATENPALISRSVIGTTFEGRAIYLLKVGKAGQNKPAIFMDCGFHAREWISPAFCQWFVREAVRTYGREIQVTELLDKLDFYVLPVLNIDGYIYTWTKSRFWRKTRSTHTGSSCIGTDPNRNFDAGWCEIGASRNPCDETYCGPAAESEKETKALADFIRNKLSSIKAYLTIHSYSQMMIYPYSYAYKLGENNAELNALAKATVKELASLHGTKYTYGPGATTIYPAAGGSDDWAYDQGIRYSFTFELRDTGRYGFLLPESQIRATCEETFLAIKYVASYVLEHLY

[5] = molecular target: T3, bTAFI (Bos taurus (Bovine), UniProt Q2KIG3); test: Ki, residual activity
T3 chain: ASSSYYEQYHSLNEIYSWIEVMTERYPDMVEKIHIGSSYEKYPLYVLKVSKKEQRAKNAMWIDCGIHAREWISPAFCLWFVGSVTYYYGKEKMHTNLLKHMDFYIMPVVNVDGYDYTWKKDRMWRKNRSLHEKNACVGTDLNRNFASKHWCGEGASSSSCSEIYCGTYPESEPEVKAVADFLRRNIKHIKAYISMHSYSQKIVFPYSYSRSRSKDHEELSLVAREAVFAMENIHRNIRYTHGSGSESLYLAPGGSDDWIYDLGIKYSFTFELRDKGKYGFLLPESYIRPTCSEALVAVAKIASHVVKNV

[6] = molecular target: T4, hCPA2 (Homo sapiens (Human), UniProt P48052); test: Ki, residual activity
T4 chain: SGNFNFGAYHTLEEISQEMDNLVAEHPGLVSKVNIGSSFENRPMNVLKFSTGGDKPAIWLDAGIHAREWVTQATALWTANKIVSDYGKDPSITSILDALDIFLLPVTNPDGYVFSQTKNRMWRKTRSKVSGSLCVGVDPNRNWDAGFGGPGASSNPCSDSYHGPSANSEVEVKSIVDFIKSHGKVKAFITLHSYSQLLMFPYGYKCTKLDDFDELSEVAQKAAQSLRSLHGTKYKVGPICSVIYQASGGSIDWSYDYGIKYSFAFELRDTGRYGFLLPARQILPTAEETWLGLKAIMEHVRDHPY

[7] = molecular target: T5, hCPZ (Homo sapiens (Human), UniProt Q66K79); test: Ki, residual activity
T5 chain: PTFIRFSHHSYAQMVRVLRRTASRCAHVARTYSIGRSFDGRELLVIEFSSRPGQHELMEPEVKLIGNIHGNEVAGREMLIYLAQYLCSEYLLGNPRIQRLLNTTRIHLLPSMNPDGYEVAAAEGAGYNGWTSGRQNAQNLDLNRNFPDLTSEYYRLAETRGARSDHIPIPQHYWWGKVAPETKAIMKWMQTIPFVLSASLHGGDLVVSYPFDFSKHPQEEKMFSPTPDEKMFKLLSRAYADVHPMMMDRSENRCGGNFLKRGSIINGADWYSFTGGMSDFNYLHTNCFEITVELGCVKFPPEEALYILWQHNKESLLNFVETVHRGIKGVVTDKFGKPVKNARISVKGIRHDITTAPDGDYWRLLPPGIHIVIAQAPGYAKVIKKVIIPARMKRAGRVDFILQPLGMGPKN

[8] = molecular target: T6, rCPA3 (Rattus norvegicus (Rat), UniProt P21961); test: Ki, residual activity
T6 chain: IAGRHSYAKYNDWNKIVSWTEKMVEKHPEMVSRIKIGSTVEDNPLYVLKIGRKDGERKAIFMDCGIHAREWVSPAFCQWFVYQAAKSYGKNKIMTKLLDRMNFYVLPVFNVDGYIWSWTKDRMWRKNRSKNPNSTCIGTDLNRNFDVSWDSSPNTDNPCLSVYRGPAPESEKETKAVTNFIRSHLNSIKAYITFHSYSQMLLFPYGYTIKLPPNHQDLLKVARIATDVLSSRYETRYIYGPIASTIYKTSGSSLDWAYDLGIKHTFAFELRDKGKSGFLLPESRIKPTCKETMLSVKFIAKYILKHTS

[9] = molecular target: T7, pCPB (Sus scrofa (Pig), UniProt P09955); test: Ki, residual activity
T7 chain: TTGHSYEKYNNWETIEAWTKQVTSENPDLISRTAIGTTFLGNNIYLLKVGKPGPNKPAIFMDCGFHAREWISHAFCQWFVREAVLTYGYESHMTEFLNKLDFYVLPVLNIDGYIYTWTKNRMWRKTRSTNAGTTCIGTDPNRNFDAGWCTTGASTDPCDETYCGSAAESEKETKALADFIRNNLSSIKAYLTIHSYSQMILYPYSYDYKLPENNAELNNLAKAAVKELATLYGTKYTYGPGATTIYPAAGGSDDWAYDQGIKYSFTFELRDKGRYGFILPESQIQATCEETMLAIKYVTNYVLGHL

binding behaviour [1]: fast binding
binding behaviour [2]: slow binding behavior
Molecule: NvCI: 53-residue, three-disulphide proteinaceous metallocarboxypeptidase inhibitor from the marine snail Nerita versicolor; major isoform; UniProt P86912 (FHVPDDRPCINPGRCPLVPDATCTFVCKAADNDFGYECQHVWTFEGQRVGCYA; disulfide (positions not given here); also: three disulphides, pairing not given here; UniProt P86912 1-53, looked up)

Kd [3]: > 1000 nM
Kd [4]: 0.549 nM
Kd [5]: 0.0841 nM
Kd [6]: 2.94 nM
Kd [7]: > 1000 nM
Kd [8]: 0.1 nM
Kd [9]: 0.335 nM
B1: NvCI (protein)
chain: FHVPDDRPCINPGRCPLVPDATCTFVCKAADNDFGYECQHVWTFEGQRVGCYA
modifications: disulfide (positions not given here); not fully specified (bridges); ends not checked
